Assay [1] addresses CLDN18.2 (antigen of the ka/kd/KD measurement, species and form not stated). The assay can be described thus: affinity measurement, method not described.
Assay [2] shares this target. Nature of the assay: affinity measurement, method not described (Table 2-2).

What is called Kd is the constant that tells how readily two partners part at equilibrium. For the substance IMAB362 (antibody), the Kd in assay [1] and in assay [2] was 4.17 nM in each case.

The values are drawn from patent publication CN116003603A.
